# Source: patent US20050074840A1
# Molecular target: human TNF-alpha (hTNF-alpha) (human) (UniProt P01375)
# Assay: saturation binding of [125I]TNF-alpha on yeast
row,Kd [nM],Substance
1,1.71,mutant clone 6 TNFrED-agglutinin fusion (H34P + S57I) displayed on yeast (from UniProt P20840 330-650)
2,1.31,mutant clone 11 TNFrED-agglutinin fusion (S87P) displayed on yeast (from UniProt P20840 330-650)
3,2.04,wild-type TNFrED-agglutinin fusion displayed on the surface of S. cerevisiae BJ2168 (from UniProt P20840 330-650)
